Laboratory results from paper PMC6726633, “Different Grp94 components interact transiently with the myocilin olfactomedin domain in vitro to enhance or retard its amyloid aggregation” (Scientific Reports, 2019).
Each block holds one binder with its values, some of them ahead of it.

Columns and labels:
[1] = molecular target: T1, Myocilin olfactomedin domain, residues 228-504 (human), Q99972; assay: cross-linking; OLF-only control samples of the BS3(d0/d4) cross-linking experiments, PBS; SDS-PAGE and LC-MS; settings: remark: other sources report otherwise
T1 chain: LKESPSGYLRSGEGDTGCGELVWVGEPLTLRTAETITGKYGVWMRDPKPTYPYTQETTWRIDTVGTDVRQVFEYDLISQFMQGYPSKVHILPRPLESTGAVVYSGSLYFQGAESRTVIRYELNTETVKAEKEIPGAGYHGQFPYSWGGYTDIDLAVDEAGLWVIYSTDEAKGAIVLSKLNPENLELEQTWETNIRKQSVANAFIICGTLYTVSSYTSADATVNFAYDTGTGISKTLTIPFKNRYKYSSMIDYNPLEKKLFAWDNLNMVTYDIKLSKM

[2] = molecular target: T2, Grp94 N and middle domains, residues 22-594 (human, UniProt P14625 22-594); assay: cross-linking; Grp94N, Grp94NM or Grp94MC:OLF 1:1, OLF 100 μM (dansylated or label-free), PBS, 10 mM BS3(d0/d4) 3 h at 37 °C; SDS-PAGE (Coomassie, dansyl fluorescence), in-gel digestion and LC-MS; settings: both partners purified
T2 construct: Grp94, Homo sapiens, residues 22-594 (STOP codon installed after position 594 on the Grp94FL template); Tag removed with TEV protease; also called Grp94NM; NM; source: E. coli BL21(DE3), purified (HisTrap, SEC, TEV cleavage, SEC); not shown: His6, N-terminal, cleaved
T2 sequence (P14625 22-594): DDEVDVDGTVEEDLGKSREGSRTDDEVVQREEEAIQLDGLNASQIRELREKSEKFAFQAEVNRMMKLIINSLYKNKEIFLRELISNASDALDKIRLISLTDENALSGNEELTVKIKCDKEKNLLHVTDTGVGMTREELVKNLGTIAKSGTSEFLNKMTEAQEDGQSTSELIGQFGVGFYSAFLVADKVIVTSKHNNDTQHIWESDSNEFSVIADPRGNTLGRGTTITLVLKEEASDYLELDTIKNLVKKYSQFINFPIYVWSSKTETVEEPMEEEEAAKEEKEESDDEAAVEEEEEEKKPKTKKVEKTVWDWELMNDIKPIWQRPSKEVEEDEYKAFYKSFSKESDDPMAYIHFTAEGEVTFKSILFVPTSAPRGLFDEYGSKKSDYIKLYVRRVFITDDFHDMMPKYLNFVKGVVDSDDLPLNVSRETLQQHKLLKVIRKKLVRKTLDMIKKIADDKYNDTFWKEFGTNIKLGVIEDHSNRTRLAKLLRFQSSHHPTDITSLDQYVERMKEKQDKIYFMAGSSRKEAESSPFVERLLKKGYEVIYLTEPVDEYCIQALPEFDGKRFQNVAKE

[3] = molecular target: T3, Grp94 Pre-N truncation variant, residues 73-804 (canine) (Canis lupus familiaris, UniProt P41148 73-804); assay: co-sedimentation; after the ThT aggregation assay (Grp94 construct 3 μM, OLF 30 μM, PBS, 42 °C, up to 96 h): centrifugation 10 min at 17,000 x g; supernatant, wash and pellet on 12% reducing SDS-PAGE, Coomassie, densitometry; only samples containing OLF gave pellets; settings: both partners purified
T3 construct: C-terminal 6xHis tag is non-cleavable; not shown: His6, C-terminal, kept
T3 sequence (P41148 73-804, change not shown): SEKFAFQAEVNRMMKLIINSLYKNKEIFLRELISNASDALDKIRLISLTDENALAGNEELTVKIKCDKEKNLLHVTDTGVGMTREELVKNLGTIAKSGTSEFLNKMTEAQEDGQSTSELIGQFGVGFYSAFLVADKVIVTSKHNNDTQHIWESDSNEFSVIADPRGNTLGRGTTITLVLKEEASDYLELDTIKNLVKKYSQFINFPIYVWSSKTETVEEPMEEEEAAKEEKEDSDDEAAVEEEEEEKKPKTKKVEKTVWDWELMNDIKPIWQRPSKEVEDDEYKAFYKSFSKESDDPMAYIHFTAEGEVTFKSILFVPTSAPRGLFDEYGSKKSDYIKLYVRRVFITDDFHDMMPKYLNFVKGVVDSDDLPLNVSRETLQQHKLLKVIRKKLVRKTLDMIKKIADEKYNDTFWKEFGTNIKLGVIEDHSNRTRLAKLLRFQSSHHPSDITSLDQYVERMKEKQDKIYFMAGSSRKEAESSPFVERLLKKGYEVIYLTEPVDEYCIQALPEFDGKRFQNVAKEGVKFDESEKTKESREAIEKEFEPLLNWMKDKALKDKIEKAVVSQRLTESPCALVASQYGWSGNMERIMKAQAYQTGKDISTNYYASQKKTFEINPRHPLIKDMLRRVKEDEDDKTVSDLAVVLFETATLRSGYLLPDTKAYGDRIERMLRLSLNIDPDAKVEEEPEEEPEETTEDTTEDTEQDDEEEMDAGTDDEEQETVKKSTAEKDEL

[4] = molecular target: T4, Grp94 N-terminal nucleotide-binding domain (including Pre-N), residues 22-337 (human, UniProt P14625 22-337); assay: as above; settings: both partners purified
T4 construct: Grp94, Homo sapiens, residues 22-337 (STOP codon installed after position 337 on the Grp94FL template); Tag removed with TEV protease; also called N domain; source: E. coli BL21(DE3), purified (HisTrap, SEC, TEV cleavage, SEC); not shown: His6, N-terminal, cleaved
T4 sequence (P14625 22-337): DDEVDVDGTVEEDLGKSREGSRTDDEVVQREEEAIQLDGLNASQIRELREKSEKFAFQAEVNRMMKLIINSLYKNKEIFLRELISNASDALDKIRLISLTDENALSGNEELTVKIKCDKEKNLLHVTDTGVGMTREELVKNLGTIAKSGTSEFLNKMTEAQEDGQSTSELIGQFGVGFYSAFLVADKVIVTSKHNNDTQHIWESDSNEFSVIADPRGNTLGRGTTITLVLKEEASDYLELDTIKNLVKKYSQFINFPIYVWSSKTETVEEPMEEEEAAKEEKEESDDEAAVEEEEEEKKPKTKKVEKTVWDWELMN

[5] = molecular target: T5, Grp94 Pre-N truncation variant, residues 58-804 (canine) (Canis lupus familiaris, UniProt P41148 58-804); assay: as above; settings: both partners purified
T5 construct: C-terminal 6xHis tag is non-cleavable; not shown: His6, C-terminal, kept
T5 sequence (P41148 58-804, change not shown): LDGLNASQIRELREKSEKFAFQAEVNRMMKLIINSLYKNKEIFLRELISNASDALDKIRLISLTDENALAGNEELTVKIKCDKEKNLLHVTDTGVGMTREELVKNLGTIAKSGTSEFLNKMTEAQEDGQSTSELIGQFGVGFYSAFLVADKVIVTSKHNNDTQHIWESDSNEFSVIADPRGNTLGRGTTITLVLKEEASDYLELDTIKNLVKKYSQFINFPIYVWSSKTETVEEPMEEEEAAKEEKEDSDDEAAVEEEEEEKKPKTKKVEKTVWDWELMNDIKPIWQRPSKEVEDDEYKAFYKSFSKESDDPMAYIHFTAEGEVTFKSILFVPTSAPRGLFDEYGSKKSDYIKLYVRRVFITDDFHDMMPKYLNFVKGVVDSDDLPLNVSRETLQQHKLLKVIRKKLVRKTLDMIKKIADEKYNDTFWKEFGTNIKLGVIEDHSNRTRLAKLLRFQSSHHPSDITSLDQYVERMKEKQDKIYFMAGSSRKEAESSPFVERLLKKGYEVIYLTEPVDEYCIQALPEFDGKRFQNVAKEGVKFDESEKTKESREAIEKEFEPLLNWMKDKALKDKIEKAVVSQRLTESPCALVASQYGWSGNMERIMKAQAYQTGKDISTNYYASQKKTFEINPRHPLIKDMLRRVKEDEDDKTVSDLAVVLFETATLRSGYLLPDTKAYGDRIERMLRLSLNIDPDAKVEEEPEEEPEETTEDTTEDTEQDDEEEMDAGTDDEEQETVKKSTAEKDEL

stoichiometry N [1]: 2
B1: Myocilin olfactomedin domain, residues 228-504, Q99972 228-504 (domain or fragment)
chain: T1 chain

binding result [2]: binds
B2: Dansylated myocilin olfactomedin domain (domain or fragment, human, UniProt Q99972 228-504, looked up)
chain: T1 chain
modifications: dansyl (~2 dansyl modifications per OLFd by MS), sites not stated
notes: Myocilin C-terminal olfactomedin (OLF) domain, Homo sapiens, residues 228-504; Same construct as m7, chemically labelled; also called OLFd; dansyl-modified OLF

binding result [2]: binds
binding result [3]: binds
binding result [4]: binds
binding result [5]: binds
B3: Myocilin olfactomedin domain, residues 228-504 (domain or fragment, human, UniProt Q99972 228-504, looked up)
chain: T1 chain
notes: Myocilin C-terminal olfactomedin (OLF) domain, Homo sapiens, residues 228-504; The results call S233 the N-terminal residue of the OLF construct, though the methods give residues 228-504 and a cross-link at K229 is reported; also called wild-type OLF
